# Test results as given in patent publication US20040092720A1 (US Dept. of Health and Human Services, published 2004).
# Molecular target: T1, recombinant human IL-6 (human, UniProt P05231 30-212, labeled with radioactive iodine)
# T1 construct: Labeled probe in solution, added to wells that carry the synthetic peptides; also called IL-6 ligand; Interleukin-6
# Assay: radioiodinated IL-6 on peptide array
row,Binder,Counts/minute bound [counts/minute]
1,FVNIEVWVEAENALGKVTSDHINF [Peptide E20],1410
2,ENALGKVTSDHINFDPVYKVKPNP [Peptide E21],1120
3,HINFDPVYKVKPNPPHNLSVINSE [Peptide E22],1730
4,KPNPPHNLSVINSEELSSILKLTW [Peptide E23],1410
5,INSEELSSILKLTWTNPSIKSVII [Peptide E24],1010
6,KLTWTNPSIKSVIILKYNIQYRTK [Peptide E25],10300
7,SVIILKYNIQYRTKDASTWSQIPP [Peptide E26],2830
8,YRTKDASTWSQIPPEDTASTRSSF [Peptide E27],1160
9,QIPPEDTASTRSSFTVQDLKPFTE [Peptide E28],1200
10,RSSFTVQDLKPFTEYVFRIRCMKE [Peptide E29],1320
11,PFTEYVFRIRCMKEDGKGYWSDWS [Peptide E30],1260
12,CMKEDGKGYWSDWSEEASGITYED [Peptide E31],1730
13,SDWSEEASGITYEDRPSKAPSFWY [Peptide E32],1160
14,TYEDRPSKAPSFWYKIDPSHTQGY [Peptide E33],1220
15,SFWYKIDPSHTQGYRTVQLVWKTL [Peptide E34],1140
16,TQGYRTVQLVWKTLPPFEANGKIL [Peptide E35],1170
17,WKTLPPFEANGKILDYEVTLTRWK [Peptide E36],1460
18,GKILDYEVTLTRWKSHLQNYTVNA [Peptide E37],1790
19,TRWKSHLQNYTVNATKLTVNLTND [Peptide E38],3650
20,TVNATKLTVNLTNDRYLATLTVRN [Peptide E39],4360
21,LTNDRYLATLTVRNLVGKSDAAVL [Peptide E40],4800
22,TVRNLVGKSDAAVLTIPACDFQAT [Peptide E41],1100
23,AAVLTIPACDFQATHPVMDLKAFP [Peptide E42],1120
24,FQATHPVMDLKAFPKDNMLWVEWT [Peptide E43],1300
25,KAFPKDNMLWVEWTTPRESVKKYI [Peptide E44],1180
26,VEWTTPRESVKKYILEWCVLSDKA [Peptide E45],1390
